Data published in patent US20240392003A1 (NUMAB THERAPEUTICS, published 2024).
Like-named read-outs stand apart in the source and are kept apart here.

What was measured:
[1] = biological target: T1, recombinant human CD3 epsilon extra-cellular domain protein (His-Tag, SinoBiological) (human, UniProt P07766 23-126); experiment: SPR; hCD3ε immobilized, two-state fit (ka1)
T1 construct: extracellular domain; Bought; also called hCD3ε; human CD3ε; not shown: His tag

[2] = biological target: T2, human ROR1 expressed on cells (human, UniProt Q01973 30-937); experiment: flow cytometry, MDA-MB-231 cells, 1 mg/ml hSA
T2 construct: whole, on cells; One molecule for cell-surface ROR1 on all cell lines; the cell line is named under assay; also called hROR1; plasma membrane human ROR1

[3] = biological target: T2, human ROR1 expressed on cells; experiment: cell-based or functional assay
[4] = biological target: T1, recombinant human CD3 epsilon …; experiment: SPR; hCD3ε immobilized, two-state fit (kd1)
[5] = biological target: T1, recombinant human CD3 epsilon …; experiment: SPR; hCD3ε immobilized, two-state fit
[6] = biological target: T3, recombinant human ROR1 protein (Fc-Tag, Acro Biosystems RO1-H5250) (human, UniProt Q01973 30-406); experiment: SPR; hROR1-Fc immobilized
T3 construct: Bought; also called hROR1; recombinant human ROR1 ECD; not shown: Fc tag

[7] = biological target: T1, recombinant human CD3 epsilon …; experiment: SPR; hCD3ε immobilized, two-state fit; remark: listed apart in the source
[8] = biological target: T1, recombinant human CD3 epsilon …; experiment: SPR; hCD3ε immobilized, two-state fit (kd1); remark: listed apart in the source
[9] = biological target: T3, recombinant human ROR1 protein (Fc-Tag, …); experiment: SPR; hROR1-Fc immobilized (Avidity)
[10] = biological target: T1, recombinant human CD3 epsilon …; experiment: SPR; hCD3ε immobilized, two-state fit (Ka1)
[11] = biological target: T4, human ROR1 (Peprotech 160-054) (human, UniProt Q01973 30-406); experiment: SPR; MATCH4 captured, hROR1 analyte (Affinity)
T4 construct: Bought, used as analyte; also called hROR1; recombinant human ROR1 protein

[12] = biological target: T5, human serum albumin (Sigma-Aldrich A3782) (human, UniProt P02768 25-609); experiment: SPR; hSA immobilized, pH 5.5
T5 construct: also called hSA; HSA

[13] = biological target: T3, recombinant human ROR1 protein (Fc-Tag, …); experiment: SPR; hROR1-Fc immobilized; remark: listed apart in the source
[14] = biological target: T2, human ROR1 expressed on cells; experiment: flow cytometry, MDA-MB-231 cells

| kon [1] [M⁻¹ s⁻¹] | koff [4] [s⁻¹] | Kd [5] [nM] | ka2 [5] [s⁻¹] | kd2 [5] [s⁻¹] | Kd [6] [nM] | koff [6] [s⁻¹] | kon [6] [M⁻¹ s⁻¹] | Kd [13] [nM] | koff [13] [s⁻¹] | kon [13] [M⁻¹ s⁻¹] | EC50 [14] [nM] | Rel. maximum binding (MFIscFv/MFIPRO2213) [14] | Binder | other results |
| --- | --- | --- | --- | --- | --- | --- | --- | --- | --- | --- | --- | --- | --- | --- |
| 380000 | 0.0062 | 8.5 | 0.0068 | 0.0074 | ≤ 0.13 | < 1e-05 | 76000 | – | – | – | – | – | PRO2508 (bispecific antibody, trispecific anti-ROR1 x hSA x CD3 scMATCH3, single chain; also called 19-04-A10-sc06 scDb-o/28-21-D09-sc04 scDb-i/55-38-D07-sc06-scFv) AFELTQSPSSLSASVGDRVTITCQASESINSRLAWYQQKPGQPPKLLIYDASDLTSGVPSRFSGSGSGTDFTLTISSLQPEDFATYYCQGYGGSSTTTFGCGTKLTVLGGGGGSEVQLVESGGGLVQPGGSLRLSCAASGFSLSSYDMSWVRQAPGKGLAWIGASYASGPTYYASWAKGRFTISRDNSKNTVYLQMNSLRAEDTATYFCARGGWTGTSHSNIWGQGTLVTVSSGGGGSGGGGSGGGGSGGGGSDIQMTQSPSSLSASVGDRVTITCQSSQSVFSNNYLAWFQQKPGQSPKRLIYSASTLASGVPSRFSGSGSGTDFTLTISSLQPEDFATYYCLGSYACSSADCYVFGTGTKVTVLGGGGGSEVQLVESGGGLVQPGGSLRLSCAASGFSLSSYAMNWVRQAPGKCLEWIGHINAGDIAYYATWAKGRFTISRDNSKNTVYLQMNSLRAEDTAVYFCARGAGGFSTGPFKLWGQGTLVTVSSGGGGSGGGGSDVQMTQSPSSLSASVGDRVTITCRASENIYSGLAWYQQKPGKPPKLLIYRASTLASGVSSRFSGSGSGTDFTLTISSLQPEDFATYYCQGGYYSSSSTYIAFGCGTKVTVLGGGGGSGGGGSGGGGSGGGGSQSQVVESGGGLVQPGGSLRLSCAVSGFDLSSYAVSWVRQAPGKCLEWIGIIYPRANTYYASWAKGRFTISKDNSKNTVYLQMNSLRAEDTAVYFCARDRYDSGAYLYTTYFNLWGQGTLVTVSS | EC50 [2]: 18.7 nM; Rel. maximum binding (MFIscMATCH3/MFIPRO2213) [2]: 3; EC50 (nM) Cytotoxicity (MDA-MB-231) [3]: 1.7 nM |
| 540000 | 0.0041 | 4.4 | 0.0045 | 0.0061 | 0.97 | 9.2e-05 | 95000 | – | – | – | – | – | PRO2667 (bispecific antibody, trispecific anti-ROR1 x hSA x CD3 scMATCH3, single chain, modified VH domains; also called 19-04-A10-sc06(RTQ) scDb-o/28-21-D09-sc04 (RTQ) scDb-i/55-38-D07-sc02(RTQ)-scFv) AFELTQSPSSLSASVGDRVTITCQASESINSRLAWYQQKPGQPPKLLIYDASDLTSGVPSRFSGSGSGTDFTLTISSLQPEDFATYYCQGYGGSSTTTFGCGTKLTVLGGGGGSEVQLVESGGGRVQPGGSLRLSCAASGFSLSSYDMSWVRQAPGKGLAWIGASYASGPTYYASWAKGRFTISRDNSKNTVYLQMNSLRAEDTATYFCARGGWTGTSHSNIWGQGTQVTVSSGGGGSGGGGSGGGGSGGGGSDIQMTQSPSSLSASVGDRVTITCQSSQSVFSNNYLAWFQQKPGQSPKRLIYSASTLASGVPSRFSGSGSGTDFTLTISSLQPEDFATYYCLGSYACSSADCYVFGTGTKVTVLGGGGGSEVQLVESGGGRVQPGGSLRLSCAASGFSLSSYAMNWVRQAPGKCLEWIGHINAGDIAYYATWAKGRFTISRDNSKNTVYLQMNSLRAEDTATYFCARGAGGFSTGPFKLWGQGTQVTVSSGGGGSGGGGSDVQMTQSPSSLSASVGDRVTITCRASENIYSGLAWYQQKPGKPPKLLIYRASTLASGVSSRFSGSGSGTDFTLTISSLQPEDFATYYCQGGYYSSSSTYIAFGTGTKVTVLGGGGGSGGGGSGGGGSGGGGSQSQVVESGGGRVQPGGSLRLSCAVSGFDLSSYAVSWVRQAPGKGLEWIGIIYPRANTYYASWAKGRFTISKDNSKNTVYLQMNSLRAEDTATYFCARDRYDSGAYLYTTYFNLWGQGTQVTVSS | – |
| – | – | – | – | – | – | – | – | – | – | – | – | – | PRO2669 (bispecific antibody, heterodimeric MATCH4, modified VH domains, variant of PRO2589; also called MATCH4 with 55-38-D07-sc02(RTQ) / 19-04-A10-sc02(RTQ) diS / 28-21-D09-sc04(RTQ) / 55-38-D07-sc02(RTQ)) chain 1: DVQMTQSPSSLSASVGDRVTITCRASENIYSGLAWYQQKPGKPPKLLIYRASTLASGVSSRFSGSGSGTDFTLTISSLQPEDFATYYCQGGYYSSSSTYIAFGTGTKVTVLGGGGGSGGGGSGGGGSGGGGSQSQVVESGGGRVQPGGSLRLSCAVSGFDLSSYAVSWVRQAPGKGLEWIGIIYPRANTYYASWAKGRFTISKDNSKNTVYLQMNSLRAEDTATYFCARDRYDSGAYLYTTYFNLWGQGTQVTVSSGGGGSGGGGSAFELTQSPSSLSASVGDRVTITCQASESINSRLAWYQQKPGQPPKLLIYDASDLTSGVPSRFSGSGSGTDFTLTISSLQPEDFATYYCQGYGGSSTTTFGCGTKLTVLGGGSGGSDIQMTQSPSSLSASVGDRVTITCQSSQSVFSNNYLAWFQQKPGQSPKRLIYSASTLASGVPSRFSGSGSGTDFTLTISSLQPEDFATYYCLGSYACSSADCYVFGTGTKVTVLG chain 2: DVQMTQSPSSLSASVGDRVTITCRASENIYSGLAWYQQKPGKPPKLLIYRASTLASGVSSRFSGSGSGTDFTLTISSLQPEDFATYYCQGGYYSSSSTYIAFGTGTKVTVLGGGGGSGGGGSGGGGSGGGGSQSQVVESGGGRVQPGGSLRLSCAVSGFDLSSYAVSWVRQAPGKGLEWIGIIYPRANTYYASWAKGRFTISKDNSKNTVYLQMNSLRAEDTATYFCARDRYDSGAYLYTTYFNLWGQGTQVTVSSGGGGSGGGGSEVQLVESGGGRVQPGGSLRLSCAASGFSLSSYDMSWVRQAPGKGLAWIGASYASGPTYYASWAKGRFTISRDNSKNTVYLQMNSLRAEDTATYFCARGGWTGTSHSNIWGQGTQVTVSSGGGSGGGSGGGSGEVQLVESGGGRVQPGGSLRLSCAASGFSLSSYAMNWVRQAPGKCLEWIGHINAGDIAYYATWAKGRFTISRDNSKNTVYLQMNSLRAEDTATYFCARGAGGFSTGPFKLWGQGTQVTVSS | Ka2 [7]: 0.0056 s⁻¹; Kd [7]: 2.7 nM; Kd2 [7]: 0.0047 s⁻¹; koff [8]: 0.0047 s⁻¹; Kd [9]: 0.026 nM; koff [9]: 2.6e-05 s⁻¹; kon [9]: 1e+06 M⁻¹ s⁻¹; kon [10]: 810000 M⁻¹ s⁻¹; Kd [11]: ≤ 0.177 nM; koff [11]: < 1e-05 s⁻¹; kon [11]: 56600 M⁻¹ s⁻¹ |
| – | – | – | – | – | – | – | – | – | – | – | – | – | PRO2558 (bispecific antibody, Interdomain disulfide in the hSA domain (VH G51C / VL G141C, AHo numbering)., also called 19-04-A10-sc06 scDb-o/28-21-D09-sc04 scDb-i/56-22-A05-sc02 scFv; not shown: C-terminal 56-22-A05-sc02 scFv and the linker leading to it) AFELTQSPSSLSASVGDRVTITCQASESINSRLAWYQQKPGQPPKLLIYDASDLTSGVPSRFSGSGSGTDFTLTISSLQPEDFATYYCQGYGGSSTTTFGCGTKLTVLGGGGGSEVQLVESGGGLVQPGGSLRLSCAASGFSLSSYDMSWVRQAPGKGLAWIGASYASGPTYYASWAKGRFTISRDNSKNTVYLQMNSLRAEDTATYFCARGGWTGTSHSNIWGQGTLVTVSSGGGGSGGGGSGGGGSGGGGSDIQMTQSPSSLSASVGDRVTITCQSSQSVFSNNYLAWFQQKPGQSPKRLIYSASTLASGVPSRFSGSGSGTDFTLTISSLQPEDFATYYCLGSYACSSADCYVFGTGTKVTVLGGGGGSEVQLVESGGGLVQPGGSLRLSCAASGFSLSSYAMNWVRQAPGKCLEWIGHINAGDIAYYATWAKGRFTISRDNSKNTVYLQMNSLRAEDTAVYFCARGAGGFSTGPFKLWGQGTLVTVSS | Kd [12]: 4.4 nM; koff [12]: 0.002 s⁻¹; kon [12]: 460000 M⁻¹ s⁻¹ |
| – | – | – | – | – | – | – | – | 1.12 | 0.000302 | 269000 | 2.74 | 1.18 | PRO2291 (scFv, V domains shown, scFv, PRO2060 with VL-VH interdomain disulfide (AHo 141VL-51VH); also called 55-38-D07-sc06) VH: QSQVVESGGGLVQPGGSLRLSCAVSGFDLSSYAVSWVRQAPGKCLEWIGIIYPRANTYYASWAKGRFTISKDNSKNTVYLQMNSLRAEDTAVYFCARDRYDSGAYLYTTYFNLWGQGTLVTVSS VL: DVQMTQSPSSLSASVGDRVTITCRASENIYSGLAWYQQKPGKPPKLLIYRASTLASGVSSRFSGSGSGTDFTLTISSLQPEDFATYYCQGGYYSSSSTYIAFGCGTKVTVLG | – |
| – | – | – | – | – | – | – | – | 0.0906 | 0.000616 | 6.8e+06 | 0.27 | 1.18 | PRO2292 (scFv, V domains shown, scFv, PRO2062 with VL-VH interdomain disulfide (AHo 141VL-51VH); also called 55-39-G02-sc05) VH: QSQLVESGGGLVQPGGSLRLSCAVSGLSLSRNAMSWVRQAPGKCLEWIGIILTSGSTYYASWAKGRFTISKDNSKNTVYLQMNSLRAEDTAVYFCVRGIASSSLKSFWGQGTLVTVSS VL: AQQLTQSPSSLSASVGDRVTITCQASQNVWNNNYLSWFQQKPGKPPKLLIVTASTLASGVSSRFSGSGSGTDFTLTISSLQPEDFATYYCAGGFSGEIRAFGCGTKVTVLG | – |
